Where a chain is given by its changes, count along the chain named. Ends that are not written are not given here.
T1: pWT PDZ2 (pseudo wild type SAP97 PDZ2, I342W/C378A) (Homo sapiens, UniProt Q12959, C378A/I342W)
T1 construct: constituting SAP97 residues 311–407 and the mutations I342W and C372A; His-tagged lipoyl protein domain (N, cleaved yes); made in house
T1 sequence (Q12959 311-407 I342W/C378A): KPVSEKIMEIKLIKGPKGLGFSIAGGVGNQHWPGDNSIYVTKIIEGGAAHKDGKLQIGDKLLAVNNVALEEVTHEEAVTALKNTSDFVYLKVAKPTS

T2: PDZØ9 (pWT SAP97 PDZ2 L391F/K392M) (Homo sapiens, UniProt Q12959, C378A/I342W/K392M/L391F)
T2 construct: constituting SAP97 residues 311–407 and the mutations I342W and C372A; His-tagged lipoyl protein domain (N, cleaved yes); made in house
T2 sequence (Q12959 311-407 I342W/C378A/L391F/K392M): T1 sequence (Q12959 311-407 I342W/C378A) with L81F, K82M

T3: pWT PDZ2 L391F (Homo sapiens, UniProt Q12959, C378A/I342W/L391F)
T3 construct: constituting SAP97 residues 311–407 and the mutations I342W and C372A; His-tagged lipoyl protein domain (N, cleaved yes); made in house
T3 sequence (Q12959 311-407 I342W/C378A/L391F): T1 sequence (Q12959 311-407 I342W/C378A) with L81F

T4: pWT PDZ2 K392M (Homo sapiens, UniProt Q12959, C378A/I342W/K392M)
T4 construct: constituting SAP97 residues 311–407 and the mutations I342W and C372A; His-tagged lipoyl protein domain (N, cleaved yes); made in house
T4 sequence (Q12959 311-407 I342W/C378A/K392M): T1 sequence (Q12959 311-407 I342W/C378A) with K82M


Key:
[1] = target: T1, pWT PDZ2 (pseudo wild type SAP97 PDZ2, I342W/C378A); assay: Stopped-flow binding kinetics, peptide with pWT PDZ2
Description: (§1) The basic experimental parameters determined were the rate constants of association (kon) and dissociation (koff) for each peptide and for all PDZ variants, respectively, in a procedure described in Fig. 2 for the interaction between PDZØ9 and the EKKHTLL peptide as an example.
(§2) Figure 2 Determination of the two rate constants kon and koff for PDZØ9 binding to the EKKHTLL peptide. kon and koff were determined in separate experiments using stopped-flow spectroscopy and monitoring the change in Trp fluorescence upon binding. (a) The experimental trace was obtained by averaging of three individual experiments in which 11 μM of the EKKHTLL peptide was mixed with 1 μM PDZØ9. The trace was fitted to a single exponential function to obtain the observed rate constant, kobs. […] (c) In a displacement reaction a pre-formed complex between PDZØ9 (1 μM) and the EKKHTLL peptide (2 μM) was mixed with a large excess of dansyl-labeled peptide corresponding to the C-terminal […] of HPV18 E6 (150 μM). […] At high concentrations of dansylated peptide, none of the dissociated EKKHTLL will re-bind, and fitting to a single exponential function returns a kobs value which is equal to the dissociation rate constant, koff, of the pre-formed complex.
(§3) All of the stopped-flow experiments conducted in order to measure the rate constants for the peptide/PDZ interactions, were performed on an SX-20 MV stopped-flow spectrometer (Applied Photophysics Leatherhead, UK) at 10 °C in 50 mM potassium phosphate buffer, pH 7.5. Fluorescence was monitored using the change in emission of Trp342 in the PDZ variants (excitation at 280 nm; emission at 330 ± 30 nm). The peptides were N-acetylated (Ontores Biotechnologies) and the concentration of the respective stock solution was determined with either absorbance, quantitative amino acid analysis or direct detect (EMD Millipore). The rate constants of association, kon, and dissociation, koff, were determined in separate experiments. […] For each PDZ variant the kobs values were plotted versus the concentration of peptide and fitted to the general equation for a reversible bimolecular interaction[38][39] from which kon was derived. The koff was measured in a displacement experiment in which a pre-formed complex of PDZ variant (1 μM) and peptide (2 μM) was mixed with high concentrations of a dansylated RRRETQV-peptide (100, and 150 μM), which competes with the unlabelled peptide for binding to the PDZ. […] The kobs value at high peptide concentration is equal to the overall koff value, as described previously.

[2] = target: T2, PDZØ9 (pWT SAP97 PDZ2 L391F/K392M); assay: Stopped-flow binding kinetics, peptide with PDZØ9
Description: as §1, §2, §3

pWT PDZ2 L391F = target: T3, pWT PDZ2 L391F; assay: Stopped-flow binding kinetics, peptide with pWT PDZ2 L391F
Description: as §1, §2, §3

pWT PDZ2 K392M = target: T4, pWT PDZ2 K392M; assay: Stopped-flow binding kinetics, peptide with pWT PDZ2 K392M
Description: as §1, §2, §3

[3] = target: PDZØ9, engineered variant (L391F/K392M) of pWT SAP97 PDZ2 (human) (UniProt Q12959); assay: stopped-flow spectroscopy
[4] = target: Pseudo wild type SAP97 PDZ2 (second PDZ domain of synapse associated protein 97, I342W/C378A) (human) (UniProt Q12959); assay: stopped-flow spectroscopy
pWT PDZ2 K392M (human) = pWT PDZ2 K392M (human) (UniProt Q12959); assay: stopped-flow spectroscopy
pWT PDZ2 L391F (human) = pWT PDZ2 L391F (human) (UniProt Q12959); assay: stopped-flow spectroscopy
[5] = Kd = koff/kon, pH 7.5, 10 °C, ± propagated standard error
[6] = Trp342 fluorescence, 1 µM PDZ, peptide 2–40 µM, N-acetylated peptide, 50 mM potassium phosphate pH 7.5, 10 °C, value ± standard error
[7] = displacement of pre-formed complex (1 µM PDZ, 2 µM peptide) with 100 and 150 µM dansylated RRRETQV peptide, pH 7.5, 10 °C, value ± standard error

pWT PDZ2 L391F (human), sequence (Q12959 311-407, stated change not applied): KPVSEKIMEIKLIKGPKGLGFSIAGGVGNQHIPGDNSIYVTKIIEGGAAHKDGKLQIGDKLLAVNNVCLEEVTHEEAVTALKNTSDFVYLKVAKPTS
pWT PDZ2 K392M (human), sequence (Q12959 311-407, stated change not applied): as the sequence (Q12959 311-407, stated change not applied) above
PDZØ9, engineered variant (L391F/K392M) of pWT SAP97 PDZ2 (human), sequence (Q12959 311-407, stated change not applied): as the sequence (Q12959 311-407, stated change not applied) above

| Molecule | koff [3] [s⁻¹] | kon [3] [M⁻¹ s⁻¹] | koff [4] [s⁻¹] | kon [4] [M⁻¹ s⁻¹] | koff (pWT PDZ2 K392M (human)) [s⁻¹] | kon (pWT PDZ2 K392M (human)) [M⁻¹ s⁻¹] | koff (pWT PDZ2 L391F (human)) [s⁻¹] | kon (pWT PDZ2 L391F (human)) [M⁻¹ s⁻¹] | other results |
| --- | --- | --- | --- | --- | --- | --- | --- | --- | --- |
| Ac-YRRESAI [YRRESAI] | – | – | – | – | – | – | – | – | Kd [1, 5]: 4600 ± 100 nM; kon [1, 6]: 1.9e+07 ± 500000 M⁻¹ s⁻¹; koff [1, 7]: 87 ± 0.5 s⁻¹; Kd ([2]; Kd = koff/kon, stopped-flow, pH 7.5, 10 °C, ± propagated standard error): 770 ± 10 nM; koff ([2]; displacement of pre-formed complex (1 µM PDZ, 2 µM peptide) with 100 and 150 µM dansylated RRRETQV peptide, stopped-flow, pH 7.5, 10 °C, value ± standard error): 17 ± 0.2 s⁻¹; kon ([2]; stopped-flow, Trp342 fluorescence, 1 µM PDZ, peptide 2–40 µM, N-acetylated peptide, 50 mM potassium phosphate pH 7.5, 10 °C, value ± standard error): 2.2e+07 ± 200000 M⁻¹ s⁻¹; Kd (pWT PDZ2 L391F; [5]): 790 ± 10 nM; kon (pWT PDZ2 L391F; [6]): 1.9e+07 ± 100000 M⁻¹ s⁻¹; koff (pWT PDZ2 L391F; [7]): 15 ± 0.2 s⁻¹; Kd (pWT PDZ2 K392M; [5]): 4200 ± 100 nM; kon (pWT PDZ2 K392M; Trp342 fluorescence, 1 µM PDZ, peptide 2–40 µM, N-acetylated peptide, 50 mM potassium phosphate pH 7.5, 10 °C, value ± standard error (EKKHTLL: mean of two experiments)): 2.5e+07 ± 700000 M⁻¹ s⁻¹; koff (pWT PDZ2 K392M; [7]): 105 ± 0.5 s⁻¹ |
| dansyl-labeled peptide: dansyl-labeled peptide corresponding to the C-terminal six residues of HPV18 E6, competitor in displacement experiments (RRRETQV; also: dansyl label, position not given here) [reference compound] | – | – | – | – | – | – | – | – | kobs, binding of free PDZØ9 to the dansyl-labeled peptide ([2]; 150 μM dansyl-labeled peptide, initial part of displacement trace): ~1000 s⁻¹ |
| Ac-EKKHTLL [EKKHTLL peptide (C-terminus of E9PN86_HUMAN, partial transcript of EIF3M_HUMAN)] | 7.9 | 1.4e+07 | 112 | 1.2e+07 | 157 | 1.1e+07 | 7.1 | 1.1e+07 | – |
| Ac-KRKETLV [KRKETLV peptide (C-terminus of neuroepithelial cell-transforming gene 1 protein, Net1)] | 0.6 | 8e+06 | 3 | 6.4e+06 | 3.4 | 7.2e+06 | 0.6 | 7.4e+06 | Kd [3]: 80 nM; Kd [4]: 470 nM; Kd (pWT PDZ2 K392M (human)): 470 nM; Kd (pWT PDZ2 L391F (human)): 80 nM |
| Ac-RSISTDV [RSISTDV peptide (C-terminus of protein FAM163B)] | 4.3 | 1.7e+07 | 26 | 2.1e+07 | 31 | 1.7e+07 | 4.3 | 2.4e+07 | – |
| Ac-NSKETVV [NSKETVV peptide (C-terminus of E3 ubiquitin-protein ligase MARCH3)] | 1.6 | 1e+07 | 8.6 | 1.3e+07 | 7.7 | 9.7e+06 | 1.9 | 1.3e+07 | – |

Second part, led by results:

| koff [3] [s⁻¹] | kon [3] [M⁻¹ s⁻¹] | koff [4] [s⁻¹] | kon [4] [M⁻¹ s⁻¹] | koff (pWT PDZ2 K392M (human)) [s⁻¹] | kon (pWT PDZ2 K392M (human)) [M⁻¹ s⁻¹] | koff (pWT PDZ2 L391F (human)) [s⁻¹] | kon (pWT PDZ2 L391F (human)) [M⁻¹ s⁻¹] | Molecule | other results |
| --- | --- | --- | --- | --- | --- | --- | --- | --- | --- |
| 2.6 | 1.5e+07 | 71 | 3.3e+07 | 62 | 1.5e+07 | 3.8 | 1.8e+07 | Ac-TSRETDL [TSRETDL peptide (C-terminus of potassium voltage-gated channel subfamily A member 5, Kv1.5)] | – |
| 6.3 | 8.4e+06 | 154 | 4e+07 | 150 | 2.4e+07 | 8.8 | 1.1e+07 | Ac-VSKETPL [VSKETPL peptide (C-terminus of mitogen-activated protein kinase 12, p38γ)] | – |
| 3.4 | 1.3e+07 | 26 | 1.6e+07 | 25 | 1.2e+07 | 4 | 1.8e+07 | SARSTDV [SARSTDV peptide (C-terminus of anoctamin-9)] | – |
| 17 | 2.2e+07 | 87 | 1.9e+07 | 105 | 2.5e+07 | 15 | 1.9e+07 | Ac-YRRESAI [YRRESAI peptide (C-terminus of inward rectifier potassium channel 4, Kir2.3)] | – |

— PMC5046105, “Improved affinity at the cost of decreased specificity: a recurring theme in PDZ-peptide interactions” (Scientific Reports, 2016)
